Results as given in patent US20220227882A1 (TRUSTEES OF TUFTS COLLEGE, published 2022).

Experiments:
R431A = target: T1, R431A (Homo sapiens, UniProt P78325); test: high-throughput flow cytometry, HEK293 cells with mutant ADAM8, high stringency; range in parentheses; dotted box
T1 construct: expressed on HEK293 cells; also called human ADAM8 point mutant R431A
T1 sequence (ADAM8, looked up): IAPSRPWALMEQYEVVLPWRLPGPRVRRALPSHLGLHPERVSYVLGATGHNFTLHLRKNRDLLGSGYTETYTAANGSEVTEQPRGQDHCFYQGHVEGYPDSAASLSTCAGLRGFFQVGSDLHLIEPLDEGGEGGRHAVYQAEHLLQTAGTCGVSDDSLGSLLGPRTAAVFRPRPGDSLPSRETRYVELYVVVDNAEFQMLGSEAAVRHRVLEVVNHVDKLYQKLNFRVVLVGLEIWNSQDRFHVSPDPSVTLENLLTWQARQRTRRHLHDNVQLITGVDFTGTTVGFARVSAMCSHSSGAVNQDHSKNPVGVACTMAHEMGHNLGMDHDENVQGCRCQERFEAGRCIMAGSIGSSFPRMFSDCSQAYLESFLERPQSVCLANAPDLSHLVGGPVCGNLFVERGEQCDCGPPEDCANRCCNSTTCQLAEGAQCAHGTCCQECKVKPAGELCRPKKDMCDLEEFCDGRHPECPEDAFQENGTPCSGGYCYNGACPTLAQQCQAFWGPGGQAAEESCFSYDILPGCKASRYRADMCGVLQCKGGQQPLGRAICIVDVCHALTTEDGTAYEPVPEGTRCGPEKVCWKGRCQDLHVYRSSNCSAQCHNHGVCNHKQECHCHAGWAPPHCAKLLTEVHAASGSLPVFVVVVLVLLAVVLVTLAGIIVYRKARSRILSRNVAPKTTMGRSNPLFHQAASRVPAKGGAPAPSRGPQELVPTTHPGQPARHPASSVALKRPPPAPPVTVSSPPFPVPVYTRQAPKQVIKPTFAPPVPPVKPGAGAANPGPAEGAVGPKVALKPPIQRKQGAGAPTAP
Method: (§1) A variety of experimental parameters were optimized for high-throughput flow cytometry including blocking buffer, and primary and secondary antibody concentrations, to identify the optimal conditions for screening. Through these studies ADP2 and ADP13 were determined to be high affinity binding antibodies.
(§2) Thus, for these studies antigen-binding fragments (Fabs) of ADP2 and ADP13, which bind with lower affinity than the full antibody, were generated. In addition, higher binding stringency conditions were tested, such as increased pH, salinity, and temperature, and/or increased washing, to weaken binding sufficiently to allow identification of critical binding residues in flow cytometry. The final experimental flow cytometry conditions were: primary antibody incubation with ADP2 Fab (0.50 μg/ml), ADP13 Fab (5.00 μg/ml) and Control Ab (0.16 μg/ml) for 60 minutes in flow cytometry buffer containing 10% goat serum in PBS (Ca²⁺ and Mg²⁺ free). […] Samples were washed three times after primary antibody incubation and twice after secondary antibody incubation with PBS (Ca²⁺ and Mg′ free). Next, HEK293 cells expressing WT or mutated ADAM8 proteins or EV DNA were incubated with ADP2 or ADP13 Fabs or Control Ab at their optimal concentrations. Fab binding was detected using Alexa Fluor 488-conjugated secondary antibodies and mean cellular fluorescence determined using the Intellicyt iQue flow cytometry platform. […] This counter-screen strategy facilitates the exclusion of mutants that are locally misfolded or that have an expression defect. Binding of each test Fab to each mutant clone in the alanine scanning library was determined, in duplicate, by high-throughput flow cytometry.

G445A = target: T2, G445A (Homo sapiens, UniProt P78325); test: as above
T2 construct: expressed on HEK293 cells; also called human ADAM8 point mutant G445A
T2 sequence (ADAM8, looked up): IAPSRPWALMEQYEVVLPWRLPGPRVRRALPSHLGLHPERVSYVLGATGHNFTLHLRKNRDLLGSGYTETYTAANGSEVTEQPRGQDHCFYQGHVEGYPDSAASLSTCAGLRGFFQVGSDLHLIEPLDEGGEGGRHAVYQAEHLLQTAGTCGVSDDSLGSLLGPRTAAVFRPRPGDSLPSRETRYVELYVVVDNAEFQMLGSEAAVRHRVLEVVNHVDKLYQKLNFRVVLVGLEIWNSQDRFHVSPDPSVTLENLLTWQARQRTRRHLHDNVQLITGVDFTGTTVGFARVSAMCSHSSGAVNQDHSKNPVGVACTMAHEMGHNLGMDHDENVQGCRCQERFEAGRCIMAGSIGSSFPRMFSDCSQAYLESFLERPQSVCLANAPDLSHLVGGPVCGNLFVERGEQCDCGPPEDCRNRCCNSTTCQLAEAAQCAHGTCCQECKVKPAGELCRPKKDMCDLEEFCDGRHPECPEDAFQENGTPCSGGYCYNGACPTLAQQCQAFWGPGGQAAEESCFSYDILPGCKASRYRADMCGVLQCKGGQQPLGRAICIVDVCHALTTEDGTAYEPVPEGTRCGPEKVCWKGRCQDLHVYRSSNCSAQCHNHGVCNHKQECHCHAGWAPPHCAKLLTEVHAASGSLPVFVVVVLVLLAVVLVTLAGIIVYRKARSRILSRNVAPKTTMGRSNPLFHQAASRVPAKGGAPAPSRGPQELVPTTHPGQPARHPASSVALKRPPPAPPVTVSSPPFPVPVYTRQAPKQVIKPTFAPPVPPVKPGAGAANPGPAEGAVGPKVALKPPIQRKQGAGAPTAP
Method: as §1, §2

B1: ADP2 Fab (Fab, V domains shown)
VH: EVKLVESGGGLVQPGGSLSLSCAASGFSFPDYYMSWVRQPPGKALEWLGFIRDSANGYTTEYIASVKGRFTFSRDNSQSILYLQMNALRAEDSATYYCARYSRYYGMDYWGQGTSVTVSS
VL: SIVMTQTPKILLVSAGDRVTITCKASQTVNYDVAWYQQKPGQSPKPVIYFASNRYTGVPDRFTGSGFGTDFTFTISTVQAEDLAVYFCQQDYSAPWTFGGGTKLEIK
R431A
  Binding Reactivity (% WT): 26.2 % WT
G445A
  Binding Reactivity (% WT): 30.7 % WT
